Source: PMC3879712 (Cell Research, 2013)
One block for each molecule: values may come before it.

Columns and labels:
[1] = target: MLKL in membrane fraction (chemically cross-linked) (UniProt Q9D2Y4); assay: cross-linking
[2] = target: ND-HBD*-3×HA (mouse | not stated) (UniProt Q9D2Y4); assay: non-reducing SDS-PAGE with immunoblot
[3] = target: ND-HBD*-GFP-Flag (mouse | not stated) (UniProt Q9D2Y4); assay: SiMPull
[4] = target: the molecule itself; assay: non-reducing SDS-PAGE with immunoblot

stoichiometry N [1]: > 4
Molecule: MLKL in membrane fraction (chemically cross-linked) (from UniProt Q9D2Y4 1-472) (natural protein)

stoichiometry N [2]: 4
Molecule: ND-HBD*-3×HA (from UniProt Q9D2Y4-2 1-190)

Second part, the molecule before the results:

Molecule: ND-HBD*-GFP-Flag (from UniProt Q9D2Y4-2 1-190)
stoichiometry N [3]: < 4

B1: endogenous MLKL of L929 cells (natural protein, mouse (endogenous in L929), UniProt Q9D2Y4-2 1-464, looked up)
chain: MDKLGQIIKLGQLIYEQCEKMKYCRKQCQRLGNRVHGLLQPLQRLQAQGKKNLPDDITAALGRFDEVLKEANQQIEKFSKKSHIWKFVSVGNDKILFHEVNEKLRDVWEELLLLLQVYHWNTVSDVSQPASWQQEDRQDAEEDGNENMKVILMQLQISVEEINKTLKQCSLKPTQEIPQDLQIKEIPKEHLGPPWTKLKTSKMSTIYRGEYHRSPVTIKVFNNPQAESVGIVRFTFNDEIKTMKKFDSPNILRIFGICIDQTVKPPEFSIVMEYCELGTLRELLDREKDLTMSVRSLLVLRAARGLYRLHHSETLHRNISSSSFLVAGGYQVKLAGFELSKTQNSISRTAKSTKAERSSSTIYVSPERLKNPFCLYDIKAEIYSFGIVLWEIATGKIPFEGCDSKKIRELVAEDKKQEPVGQDCPELLREIINECRAHEPSQRPSVDGILERLSAVEESTDKKV
stoichiometry N [4]: 4
